Laboratory results taken from PMC3359404.

Legend:
Assay in all cases: purified protein
Settings in all cases: 10 mM pyruvate, 0.3 mM NADPH, 150 mM PIPES pH 6.6, room temperature
[1] = test system: CSCC[C@H](N)C(=O)O
[2] = test system: C[S+](C)CC[C@H](N)C(=O)O
[3] = test system: N=C(N)NOCC[C@H](N)C(=O)O
[4] = test system: NC(=O)CC[C@H](N)C(=O)O
[5] = test system: NCC(=O)O
[6] = test system: N[C@@H](CCO)C(=O)O
[7] = test system: N[C@@H](CCS)C(=O)O
[8] = test system: N[C@@H](CS)C(=O)O
[9] = test system: N[C@@H](Cc1c[nH]cn1)C(=O)O

Ocs (His6-Ocs), octopine synthase (Agrobacterium tumefaciens (strain 15955))
Km [1]: 27 ± 6 mM
kcat [1]: 78.3 s⁻¹
kcat/Km [1]: 2830 M⁻¹ s⁻¹
Km [2]: 0.31 ± 0.04 mM
kcat [2]: 0.817 s⁻¹
kcat/Km [2]: 2670 M⁻¹ s⁻¹
Km [3]: 2.8 ± 0.5 mM
kcat [3]: 16.7 s⁻¹
kcat/Km [3]: 6000 M⁻¹ s⁻¹
Km [4]: 5.6 ± 0.6 mM
kcat [4]: 13 s⁻¹
kcat/Km [4]: 2330 M⁻¹ s⁻¹
Km [5]: 30 ± 6 mM
kcat/Km [5]: 717 M⁻¹ s⁻¹
Km [6]: 15 ± 3 mM
kcat [6]: 30 s⁻¹
kcat/Km [6]: 2000 M⁻¹ s⁻¹
Km [7]: 8.9 ± 1.1 mM
kcat [7]: 26.7 s⁻¹
kcat/Km [7]: 3000 M⁻¹ s⁻¹
Km [8]: 11 ± 3 mM
kcat [8]: 11.2 s⁻¹
kcat/Km [8]: 1020 M⁻¹ s⁻¹
Km [9]: 2.0 ± 0.21 mM
kcat [9]: 20 s⁻¹
kcat/Km [9]: 10000 M⁻¹ s⁻¹
